This note sets out measurements from paper PMC8393326 (2021).

What all share (assay): ITC
On the technique in general: In ITC the heat of successive injections is recorded.

One test addresses T1, ERBB4 (Homo sapiens).
T1 chain: HRNTVV

The target of the next test is T2, Erbin PDZ binder.
T2 chain: TGWETWV

The target in another test is AdV E4 ORF1 (Human adenovirus).
The next test deals with T3, HTLV1 Tax (Human T-cell leukemia virus 1).
T3 chain: FRETEV

In the next test the target is HTLV3 Tax (Human T-cell leukemia virus 3).

B1: PSD95-PDZ2 155-249 (protein)
chain: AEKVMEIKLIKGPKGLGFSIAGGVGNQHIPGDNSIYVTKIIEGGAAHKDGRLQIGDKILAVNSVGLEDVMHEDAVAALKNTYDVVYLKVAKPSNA
Turning to B1, the Kd with ERBB4 worked out at 13.9 µM; in the test with Erbin PDZ binder it was 5.7 µM; with AdV E4 ORF1 it was 11.5 µM; with HTLV1 Tax it was 1.5 µM; with HTLV3 Tax, 20 µM.

B2: PSD95-PDZ3 302-415 (protein)
chain: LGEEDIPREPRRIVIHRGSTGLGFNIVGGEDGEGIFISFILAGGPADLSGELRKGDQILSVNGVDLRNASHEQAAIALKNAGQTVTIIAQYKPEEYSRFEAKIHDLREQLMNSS
Turning to B2, the Kd with ERBB4 turned out to be 41.6 µM; with HTLV1 Tax, 3.8 µM; with HTLV3 Tax, 43 µM.

B3: Erbin-PDZ PDZ (protein)
chain: AKQEIRVRVEKDPELGFSISGGVGGRGNPFRPDDDGIFVTRVQPEGPASKLLQPGDKIIQANGYSFINIEHGQAVSLLKTFQNTVELIIVREVSS
As for B3, the Kd with Erbin PDZ binder worked out at 0.24 µM; in the test with HTLV1 Tax, 7.8 µM; in the test with HTLV3 Tax, 23 µM.

By Kd is commonly meant the concentration at which binding is half-saturated. A lower Kd goes with a tighter complex.
